# Target: HLA-DR1 with a His→Asn substitution at position β81 (human)
# Experiment: not given
row,Substance,Kd
1,HA peptide P1 L (from UniProt P03437 322-334),67.9 nM
2,HA peptide P1 V (from UniProt P03437 322-334),89.4 nM
3,"HA peptide P1,9 LA (from UniProt P03437 322-334)",206 nM
4,"HA peptide P1,9 LS (from UniProt P03437 322-334)",1880 nM
5,"HA peptide P1,9 VA (from UniProt P03437 322-334)",739 nM
6,"HA peptide P1,9 VS (from UniProt P03437 322-334)",8170 nM
7,HA peptide P9 A (from UniProt P03437 322-334),126 nM
8,HA peptide P9 S (from UniProt P03437 322-334),130 nM

# Target: HLA-DR1 with a His→Asn substitution at position β81 (human)
# Experiment: fluorescence polarisation
row,Substance,t1/2
1,fluorescein-labelled HA peptide P1 L (from UniProt P03437 322-334),55.6 h
2,fluorescein-labelled HA peptide P1 V (from UniProt P03437 322-334),47.9 h
3,"fluorescein-labelled HA peptide P1,9 LA (from UniProt P03437 322-334)",34 h
4,"fluorescein-labelled HA peptide P1,9 LS (from UniProt P03437 322-334)",5.93 h
5,"fluorescein-labelled HA peptide P1,9 VA (from UniProt P03437 322-334)",14.4 h
6,"fluorescein-labelled HA peptide P1,9 VS (from UniProt P03437 322-334)",1.65 h
7,fluorescein-labelled HA peptide P9 A (from UniProt P03437 322-334),43.6 h
8,fluorescein-labelled HA peptide P9 S (from UniProt P03437 322-334),19.3 h
